These results are taken from article PMC10033377 (Nature structural & molecular biology, 2023).

The data set “SEC” concerns the molecule itself. The experiment in a line: SEC.
The data set “negative stain EM” concerns the molecule itself. The experiment in a line: negative stain EM.

Numbering of substitutions follows the chain as printed. Names may count otherwise.

B1: PRPS1-D52H (enzyme, human)
chain: MPNIKIFSGSSHQDLSQKIADRLGLELGKVVTKKFSNQETCVEIGESVRGEHVYIVQSGCGEINDNLMELLIMINACKIASASRVTAVIPCFPYARQDKKDKSRAPISAKLVANMLSVAGADHIITMDLHASQIQGFFDIPVDNLYAEPAVLKWIRENISEWRNCTIVSPDAGGAKRVTSIADRLNVDFALIHKERKKANEVDRMVLVGDVKDRVAILVDDMADTCGTICHAADKLLSAGATRVYAILTHGIFSGPAISRINNACFEAVVVTNTIPQEDKMKHCSKIQVIDISMILAEAIRRTHNGESVSYLFSHVPL
Regarding B1, the binding result in “SEC” is “binds”.

B2: PRPS1-I290T (enzyme, human)
chain: B1 chain with H52D, I290T
For the protein B2, the binding result in “negative stain EM” is “binds”.

B3: PRPS1-S16P (enzyme, human)
chain: B1 chain with S16P, H52D
As to B3, in “negative stain EM”, the binding result is on record as “binds”.

B4: PRPS1-V309F (enzyme, human)
chain: B1 chain with H52D, V309F
Turning to B4, in “negative stain EM”, the binding result is listed as “binds”.
